Consider 21 sequences from the DeepSol protein solubility set.

This data set can be described thus: soluble on expression in E. coli; label from the status in PepcDB or PDB records.
Turning to “MGSDKIHHHHHHMIIDEISLFILDMDGTLTLEPSSWDYVHRRLGINNHSVTRLYRNRYINYYCFFQSDIKAWLHKYPNLKKEKVVEFLREVPIRHGADELINVLRKNGIRTAVISGGISWLFDIISERSKIDYNFSNEIFTDEYGYIVPEGKVRVIPEEKDLVVRKIQEELGIGKDQTASVGDEMENDRIHRYSKYRFIISKKARDNLIPIPSGDLEDLLRILE”, the “soluble on expression in E. coli” value is reported as “not soluble”.
The entry for “MGSDKIHHHHHHAREAEFKKIKESWTLQADGTQVYRQSKVLTLYTHTAMNRTYGESFITYDPRYQTLQIHESYTRQKDGNIVKTPANALVEVLPSAAANAPAFNALREMVVVHTGLELGATIYLDYSITTKPGYLPGIQICRLLEHSSPVKEYEISITVPRGQHLEYALNNHKEKASVTESEGMKQVSWTLKNLPALSREPQVSVIGGDLPLLTATTEEKPLSFLTSQWQPEGDAGIRALAGKLTAGAKDDKEKVTAIRDYVIDNLYYSSLPLAESGYRIRPAAEVIRSAYGTEAEKANLMAALLKAAGLKAGIGAVCAPSENTASLGVGSIRELFVWTDAGGSQQALSLKGKTPSAVSWQKDYAYVASLTQPFELNLPPVTLRKDYALQPDAANAKDGYLVFTLPVERGSLAGSQYVRFNSKRTSNLLLPGLADESFTYTVDTPAGMEPVTRPMEKKMDNAVGTLTISIRPEGAKTRVIRSLKLKKQMIRPADYAAFRQLMTEYGAVDGLTLVYRKPLP” is “not soluble”; for “MMSIFSVQTGSLVGTVHRYVKQPRQSWAYPIKQKSQTGTDNTKSALTLEKFTKPLTRKFSHDTICRKAPFVGVELQKPSATLTIMGKVHRQRQE” it is “not soluble”; for “GMAQAQTQGQEEEQKKKILIVVTHGPEDLDRTYAPLFMASISASMEYETSVFFMIKGPKLLDKKWQEEERKKGGNPFIHFFDMAKENGVKMYVCVQSLKDMCHMKEDDVVEGIELVGGSTLIDLTLEADRTLFF” it is “soluble”.
To “MSLSTLLISAPHLAFKIIATGVSLPPDRVESSTLDRKLNKPVGYVEQRSGVRHRYHATADANQAELAAAALHDALERHGINPSSIDLLISASAIAYQALPCTAVHILKIAGLAPRIAGFDINSSCVSFISALQVAAGLLNAGTYQRIAIVSADLASRGIDWNDEESSLIFGDGAACAIVERGDGRSGILASLVEMYPTGSELCEIRAGGTRCNPRSGMDNDDFLFHMQGKRLFRQASGIIEDYFQRLLEKSGLTLADIATVIPHQASHLSLAHMRKRLHVPTDVLVDIYRDHGNQVAASIPTALHAAVMSGRFSPGKPVMLIGTAAGLTLAGMVLLEGHHHHHH” belongs “not soluble”; to “MGSDKIHHHHHHMLEQFHIHADLKQQLSTIHEKNKQEAGENAHLIGTKIYKASDNSIIEDAITALLLGKNILLKGPTGSGKTVLAETLSSLFQKPMHSINCSVDLDVEGILGYNTLQTKDGASEVAFVNGPLMKAMKNGHFLYIDEINMAKPETLPLLHGALDYRKMITNPFTQEVVYGDDEYRVIAAINEGYVGTSELNEALKNRFVIIEVPYIQGDTLKELLLAESKLNDVTTIEKFVAFASDLMPLARDGRVSEEAASIRGIIDACDLGVYIPVMRAIERSIIAKLNDETEQMTVRELAESYFFEG”, “not soluble”; to “MGHHHHHHSHLTTKEDVFDAIVTLKVRGAPAIGITAAFGLALAAKDIETDNVTEFRRRLEDIKQYLNSSRPTAINLSWALERLSHSVENAISVNEAKTNLVHEAIQIQVEDEETCRLIGQNALQLFKKGDRIMTICNAGSIATSRYGTALAPFYLAKQKDLGLHIYACETRPVLQGSRLTAWELMQGGIDVTLITDSMAAHTMKEKQISAVIVGADRIAKNGDTANKIGTYGLAILANAFDIPFFVAAPLSTFDTKVKCGADIPIEERDPEEVRQISGVRTAPSNVPVFNPAFDITPHDLISGIITEKGIMTGNY”, “not soluble”.
Regarding “MTLDVGPEDELPDWAAAKEFYQKYDPKDVIGRGVSSVVRRCVHRATGHEFAVKIMEVTAERLSPEQLEEVREATRRETHILRQVAGHPHIITLIDSYESSSFMFLVFDLMRKGELFDYLTEKVALSEKETRSIMRSLLEAVSFLHANNIVHRDLKPENILLDDNMQIRLSDFGFSCHLEPGEKLRELCGTPGYLAPEILKCSMDETHPGYGKEVDLWACGVILFTLLAGSPPFWHRRQILMLRMIMEGQYQFSSPEWDDRSSTVKDLISRLLQVDPEARLTAEQALQHPFFERCEGSQPWNLTPRQRFRVAVWTVLAAGRVALSTHRVRPLTKNALLRDPYALRSVRHLIDNCAFRLYGHWVKKGEQQNRAALFQHRPPGPFPIMGPEEEGDSAAITEDEAVLVLG”, the “soluble on expression in E. coli” value is “soluble”.
As to “CHQDCPQMSPQPEMDRFASEFGEQDVAVDGQAPENALENDEPKYAPQVISEQNAFLMREMMYSNIWGGGNWREGTGWNGTGWRAQKLERRDIGGKTGTTNDSKDA”, the “soluble on expression in E. coli” value is “not soluble”.
As for “MTAHLAAINGLRLKAECSNCGVRELCLSVGMSLTDTDRLSAIIPQPIKVKKGAALYHAGDPLQSLYAVRFGFFKTTISSQDGRDQLTGFQMSGELLGCDAISNDCHVCDAIALEDSEVCPIRFTHLERLSREMPSLQHNLNRALSKEIVRDHEMLLLLGNLNAEERMAAFLLNLSGRMFNRGYSATAFVLRMTREDIGSYLGLRLETICRAIANLRNLRIVSISGRQVEILDLNRLQALIHGCSYRAKSL”, the “soluble on expression in E. coli” value is listed as “not soluble”.
Take “MGSDKIHHHHHHMRSPVPRVAAIHDLSGFGRTSLTVAIPVLSAMGIQVCPMPTAMLSTHTSGFKGFSFIDLTAEMRRFFDHWKSLNIRFDAIYSGFLGSPDQVAIVAQCIDMFRTPDGFAVVDPVLGDNGELEPTMDMEMVHRMRWLVSKADIITPNFTEAALLLDEPYREHIDQPTLKDWLRRLTAMGPHVAVVTSVPVEGSRTTTSVVAYNRPHDRFWKVDCQYIPAHYPGTGDTFASVLTGSILQGDSLPIAIERAVQFVTMGIRATFGHNSPSREGILLERVLDTLRAPVTMSSYELLEE”: the “soluble on expression in E. coli” value is on record as “not soluble”.
To “MSLDQREILQKFLDEAQSKKITKEEFANEFLKLKRQSTKYKADKTYPTTVAEKPKNIKKNRYKDILPYDYSRVELSLITSDEDSSYINANFIKGVYGPKAYIATQGPLSTTLLDFWRMIWEYSVLIIGMACMEYEMGKKKCERYWAEPVEMQLEFGPFSVSCEAEKRKSDYIIRTLKVKFNSETRTIYQFHYKNWPDHDVPSSIDPILELIWDVRCYQEDDSVPICIHCSAGCGRTGVICAIDYTWMLLKDGIIPENFSVFSLIREMRTQRPSLVQTQEQYELVYNAVLELFKRQMDVIRDKHSGTESQAKHCIPEKNHTLQADSYSPNLPKSTTKAAKMMNQQRTKMEIKESSSFDFRTSEISAKEELVLHPAKSSTSFDFLELNYSFDKNADTTMKWQTKAFPIVGEPLQEGHHHHHH” belongs “not soluble”.
The entry for “MGSDKIHHHHHHMKRKRIDGMNIEIITATIDMLEEIVAIQTAAFSEREPMTMSLNFTKEEMYDYFLKIIPESINSGLTMAAVDEDKGAIAAVVICFDAFAVFPNMEWTQKEIDGISKTNIFFEELEKPLNTNPAFKPEKCVRLMYVSTDENYLRRGIARKLGESMINRAIDLGYELMIADATNINSAGMFEKLGFWQEKVLPYKLVEKDGLKAFGNVEGECILYSRYLQENCFS” is “not soluble”.
Consider “MAFPAGFGWAAATAAYQVEGGWDADGKGPCVWDTFTHQGGERVFKNQTGDVACGSYTLWEEDLKCIKQLGLTHYRFSLSWSRLLPDGTTGFINQKGIDYYNKIIDDLLKNGVTPIVTLYHFDLPQTLEDQGGWLSEAIIESFDKYAQFCFSTFGDRVKQWITINEANVLSVMSYDLGMFPPGIPHFGTGGYQAAHNLIKAHARSWHSYDSLFRKKQKGMVSLSLFAVWLEPADPNSVSDQEAAKRAITFHLDLFAKPIFIDGDYPEVVKSQIASMSQKQGYPSSRLPEFTEEEKKMIKGTADFFAVQYYTTRLIKYQENKKGELGILQDAEIEFFPDPSWKNVDWIYVVPWGVCKLLKYIKDTYNNPVIYITENGFPQSDPAPLDDTQRWEYFRQTFQELFKAIQLDKVNLQVYCAWSLLDNFEWNQGYSSRFGLFHVDFEDPARPRVPYTSAKEYAKIIRNNGLEAHL”, for which the “soluble on expression in E. coli” value was “soluble”.
To “MADIYPLGKTHTEELNEIIVESAKEIAEPDTTMIQKLIDEHNPEPLLKGVRYYMCENDIEKKRRTYYDAAGQQLVDDTKTNNRTSHAWHKLFVDQKTQYLVGEPVTFTSDNKTLLEYVNELADDDFDDILNETVKNMSNKGIEYWHPFVDEEGEFDYVIFPAEEMIVVYKDNTRRDILFALRYYSYKGIMGEETQKAELYTDTHVYYYEKIDGVYQMDYSYGENNPRPHMTKGGQAIGWGRVPIIPFKNNEEMVSDLKFYKDLIDNYDSITSSTMDSFSDFQQIVYVLKNYDGENPKEFTANLRYHSVIKVSGDGGVDTLRAEIPVDSAAKELERIQDELYKSAQAVDNSPETIGGGATGPALEKLYALLDLKANMAERKIRAGLRLFFWFFAEYLRNTGKGDFNPDKELTMTFTRTRIQNDSEIVQSLVQGVTGGIMSKETAVARNPFVQDPEEELARIEEEMNQYAEMQGNLLDDEGGDDDLEEDDPNAGAAESGGAGQVS” belongs “soluble”; to “MGSDKIHHHHHHMEHFLYRLNFSTALHIGKDAGGPSLDDGQMIIHADTLFAALCCEAVRGGRITQLVKYFADGILSISDALPYAGDEIFLPRPVLFTENRKRAGDSALAKALKNKDYIPLSFFGDYLKSMQQLDFNLESLKSESDFGYLTTLTRVAIKGNSPPLPYHVAAWRFADGCGLYIIVRSEQEEARTMFASLLAELGLSGIGGKQSSGWGKFEVKPGPVPDELLRLLEDKQAEYQMLMGTALPVDNELDTVLLNGWYKLLRRGGFIRSESYAARQMKKKTIYMLASGSCLRSRFKGAMLDLSDNGAHPVWRCGNTLFVGVTI”, “not soluble”.
The entry for “MGSDKIHHHHHHMTLELIPVGISACLLGNPVRFDGGHKRLTFAVEELAPYFRFESVCPEMAIGLPVPRPALRLVREGESHVTMRASNGSSLDVTQQITVFSADKVSQLQHLCGYIVCAKSPSCGMERVKVYDEAQKNARKSGVGLFTQELMRQMPWLPVEEDGRLHDSGLRENFIERVYALHELNQLWKNGLSRGALIAFHSRYKLLLLAHSQPEYRELGPFVAGIDKWESLEEYVVEYRTRLMKLLSTPATRRNHTNVLMHVQGYFRRQLSSQQRQELAQLIDRYRQGLQPLLAPITLLKHYMAEYPDAYLAQQRYFEPYPEALRLRYGH” is “not soluble”.
The entry for “MANAIRLPPEAYPMSIAAQKNDDDRQARALAALAEKPDGIVEAIAAKAEVAPAEILAILPQGAAVSAPADRFDAIWNEMRGWGEILMIVQTGDIVLEVPGHLPEGTESHGWFNIHGDSPIGGHIKKDNCAAITFVDRGFHGRRSCSVWFMNAAGGAMFKIFVRRDENKELLAGQLAKFEELRDGFRGLEHHHHHH” is “soluble”; for “SRMQRDLSDSTVLRNLGVAFSYSLIAYHSVAKGNDKLQINKSALQKDLSENWEVLAEAIQTVMRRYNEPNAYEQLKELTRGQMIDAENLKKFIKTLSIPEEAKAELMKLTPETYTGLATQLVKAFS” it is “not soluble”; for “MTATITNKKSCSGSVEAGKTRLTTEWKPESQVPQYVKNELSKPHPNYILAFLNVVQQLKIQRRTGYLDLGIKECESISDHMYRLSIITMLIKDSRVNRDKCVRIALVHDIAESLVGDITPVDPIGKEEKHRREWETIKYLCNALIKPYNEIAAKEIMDDWLAYENVTSLEARYVKDIDKYEMLVQCFEYEREYKGTKNFDDFFGAVASIKTDEVKGWTSDLVVQRQKYFADLTQSITK” it is “soluble”.
On to “MLKIIPGATGYFNKTLNSNQFDNEDAIKDKLDNRGSIKGKLNNIYGKSIDYAALRHRDIIIAKIDLFIQRITHNLWHARKKMCFLEHHHHHH”, for which the “soluble on expression in E. coli” value is on record as “not soluble”.
